For 94 variants, protein stability index results are on record in the supplement of paper PMC10567573.

Sequences and labels used below:
B1: NEK8 (parent)
chain: YTFGSNQHGQLGTNTRRGSRAPCK
B2: ZNF207 (parent)
chain: CHICHKKLYTGPGLAIHCMQVHKE
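Also: lentivirally expressed fusions sorted by FACS into six bins by GFP to DsRed ratio, PSI derived from sequencing read proportions per bin multiplied by bin number.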

One series covers variants of B1. In words: protein stability index of a GFP-peptide fusion (GPS, HEK-293T) (PSI 1-6); higher = more stable. The settings on record: c terminus: a fixed tail appended.
For YTFGSNFHGQLGTNTRRGSRAPCK [Q7F], the protein stability index was 1.54. Still for that read-out and setting: the same measure for RTFGSNQHGQLGTNTRRGSRAPCK [Y1R]: 4.64; for HTFGSNQHGQLGTNTRRGSRAPCK [Y1H]: 4.54.

Turning to TTFGSNQHGQLGTNTRRGSRAPCK [Y1T], the protein stability index is 4.49. In the case of LTFGSNQHGQLGTNTRRGSRAPCK [Y1L], the protein stability index is 4.13. Consider FTFGSNQHGQLGTNTRRGSRAPCK [Y1F], for which the protein stability index is 3.66. Consider STFGSNQHGQLGTNTRRGSRAPCK [Y1S], for which the protein stability index is 4.89. Still for that read-out and setting: the same measure for ETFGSNQHGQLGTNTRRGSRAPCK [Y1E]: 4.47; for DTFGSNQHGQLGTNTRRGSRAPCK [Y1D]: 4.96. Still for that read-out and setting: the same measure for NTFGSNQHGQLGTNTRRGSRAPCK [Y1N]: 5.24. On the same count and under the same terms, the same measure for GTFGSNQHGQLGTNTRRGSRAPCK [Y1G]: 5.09; for ATFGSNQHGQLGTNTRRGSRAPCK [Y1A]: 4.81; for WTFGSNQHGQLGTNTRRGSRAPCK [Y1W]: 4.28. Regarding CTFGSNQHGQLGTNTRRGSRAPCK [Y1C], the protein stability index was 4.11. On the same count and under the same terms, the value for PTFGSNQHGQLGTNTRRGSRAPCK [Y1P] was 4.52; that for ITFGSNQHGQLGTNTRRGSRAPCK [Y1I] was 4.34.

With VTFGSNQHGQLGTNTRRGSRAPCK [Y1V], the protein stability index stood at 4.6. Still for that read-out and setting: the same measure for KTFGSNQHGQLGTNTRRGSRAPCK [Y1K]: 4.79; for QTFGSNQHGQLGTNTRRGSRAPCK [Y1Q]: 4.99. The same measure, in the same setting: the value for MTFGSNQHGQLGTNTRRGSRAPCK [Y1M] was 4.31. Same read-out and setting: the value for YTPGSNQHGQLGTNTRRGSRAPCK [F3P] was 2.02; that for YTIGSNQHGQLGTNTRRGSRAPCK [F3I] was 3.89; that for YTCGSNQHGQLGTNTRRGSRAPCK [F3C] was 3.58. As to YTVGSNQHGQLGTNTRRGSRAPCK [F3V], the protein stability index was found to be 3.98. Same read-out and setting: the same measure for YTHGSNQHGQLGTNTRRGSRAPCK [F3H]: 3.94. Still for that read-out and setting: the value for YTRGSNQHGQLGTNTRRGSRAPCK [F3R] was 3.92. Same read-out and setting: the same measure for YTSGSNQHGQLGTNTRRGSRAPCK [F3S]: 3.2; for YTLGSNQHGQLGTNTRRGSRAPCK [F3L]: 3.99; for YTNGSNQHGQLGTNTRRGSRAPCK [F3N]: 3.95.

As for YTEGSNQHGQLGTNTRRGSRAPCK [F3E], the protein stability index was 4.32. On the same count and under the same terms, the value for YTYGSNQHGQLGTNTRRGSRAPCK [F3Y] was 3.54. On the same count and under the same terms, the value for YTAGSNQHGQLGTNTRRGSRAPCK [F3A] was 3.31; that for YTDGSNQHGQLGTNTRRGSRAPCK [F3D] was 4.11; that for YTTGSNQHGQLGTNTRRGSRAPCK [F3T] was 3.77. Still for that read-out and setting: the same measure for YTKGSNQHGQLGTNTRRGSRAPCK [F3K]: 4.32. As for YTMGSNQHGQLGTNTRRGSRAPCK [F3M], the protein stability index came to 4.13. On the same count and under the same terms, the same measure for YTWGSNQHGQLGTNTRRGSRAPCK [F3W]: 2.06; for YTGGSNQHGQLGTNTRRGSRAPCK [F3G]: 2.29. Consider YTQGSNQHGQLGTNTRRGSRAPCK [F3Q], for which the protein stability index was found to be 3.69.

In another series the parent is B2. The series is described as above. To be noted: c terminus: a fixed tail appended.
As for CHICHKKLYTGPGLAIHCMQVHKM [E24M], the protein stability index was found to be 2.11. In the case of CHICHKKLYTGPGLAIHCMQVHKS [E24S], the protein stability index was 3.17.

For the variant CHICHKKLYTGPGLAIHCMQVHKN [E24N], the protein stability index was found to be 2.44. Same read-out and setting: the value for CHICHKKLYTGPGLAIHCMQVHKR [E24R] was 2.34. On the same count and under the same terms, the value for CHICHKKLYTGPGLAIHCMQVHKW [E24W] was 2.49; that for CHICHKKLYTGPGLAIHCMQVHKK [E24K] was 2.65. For the variant CHICHKKLYTGPGLAIHCMQVHKI [E24I], the protein stability index was 3.47.

CHICHKKLYTGPGLAIHCMQVHKV [E24V]: the protein stability index turned out to be 3.65. Regarding CHICHKKLYTGPGLAIHCMQVHKH [E24H], the protein stability index worked out at 2.18. On the same count and under the same terms, the same measure for CHICHKKLYTGPGLAIHCMQVHKD [E24D]: 2.84; for CHICHKKLYTGPGLAIHCMQVHKY [E24Y]: 2.74; for CHICHKKLYTGPGLAIHCMQVHKF [E24F]: 2.53. On the same count and under the same terms, the value for CHICHKKLYTGPGLAIHCMQVHKQ [E24Q] was 2.85. On the same count and under the same terms, the same measure for CHICHKKLYTGPGLAIHCMQVHKL [E24L]: 2.6; for CHICHKKLYTGPGLAIHCMQVHKA [E24A]: 2.66; for CHICHKKLYTGPGLAIHCMQVHKT [E24T]: 2.96. Consider CHICHKKLYTGPGLAIHCMQVHKG [E24G], for which the protein stability index was determined as 2.55. Regarding CHICHKKLYTGPGLAIHCMQVHKC [E24C], the protein stability index is 3.29. Still for that read-out and setting: the value for CHICHKKLYTGPGLAIHCMQVHKP [E24P] was 2.63. On the same count and under the same terms, the value for CHICHKKLYTGPGLAIHCMQVQKE [H22Q] was 1.8; that for CHICHKKLYTGPGLAIHCMQVRKE [H22R] was 2.11. The same measure, in the same setting: the same measure for CHICHKKLYTGPGLAIHCMQVVKE [H22V]: 2.03.

As for CHICHKKLYTGPGLAIHCMQVEKE [H22E], the protein stability index amounted to 2.67. The same measure, in the same setting: the same measure for CHICHKKLYTGPGLAIHCMQVDKE [H22D]: 3.04; for CHICHKKLYTGPGLAIHCMQVIKE [H22I]: 2.41; for CHICHKKLYTGPGLAIHCMQVGKE [H22G]: 1.88. For the variant CHICHKKLYTGPGLAIHCMQVTKE [H22T], the protein stability index is 2.48. For the variant CHICHKKLYTGPGLAIHCMQVLKE [H22L], the protein stability index is 2.11. On to CHICHKKLYTGPGLAIHCMQVPKE [H22P], for which the protein stability index turned out to be 3.15.

On to CHICHKKLYTGPGLAIHCMQVWKE [H22W], for which the protein stability index was 1.68. The same measure, in the same setting: the same measure for CHICHKKLYTGPGLAIHCMQVFKE [H22F]: 1.92; for CHICHKKLYTGPGLAIHCMQVMKE [H22M]: 2.78; for CHICHKKLYTGPGLAIHCMQVNKE [H22N]: 2.35.

Consider CHICHKKLYTGPGLAIHCMQVYKE [H22Y], for which the protein stability index is 1.45. On the same count and under the same terms, the value for CHICHKKLYTGPGLAIHCMQVSKE [H22S] was 1.85; that for CHICHKKLYTGPGLAIHCMQVKKE [H22K] was 2.41; that for CHICHKKLYTGPGLAIHCMQVHGE [K23G] was 3.68. Same read-out and setting: the value for CHICHKKLYTGPGLAIHCMQVHNE [K23N] was 4.12; that for CHICHKKLYTGPGLAIHCMQVHIE [K23I] was 2.21. Same read-out and setting: the value for CHICHKKLYTGPGLAIHCMQVHPE [K23P] was 3.04.

CHICHKKLYTGPGLAIHCMQVHWE [K23W]: the protein stability index was 2.25. The same measure, in the same setting: the same measure for CHICHKKLYTGPGLAIHCMQVHFE [K23F]: 2.04; for CHICHKKLYTGPGLAIHCMQVHVE [K23V]: 3.19; for CHICHKKLYTGPGLAIHCMQVHDE [K23D]: 3.87. Still for that read-out and setting: the value for CHICHKKLYTGPGLAIHCMQVHSE [K23S] was 3.35; that for CHICHKKLYTGPGLAIHCMQVHAE [K23A] was 3.14.

As to CHICHKKLYTGPGLAIHCMQVHME [K23M], the protein stability index was 3.49. With CHICHKKLYTGPGLAIHCMQVHCE [K23C], the protein stability index turned out to be 3.06. Same read-out and setting: the same measure for CHICHKKLYTGPGLAIHCMQVHRE [K23R]: 3.13.

For the variant CHICHKKLYTGPGLAIHCMQVHEE [K23E], the protein stability index was 3.95. On the same count and under the same terms, the same measure for CHICHKKLYTGPGLAIHCMQVHQE [K23Q]: 3.52; for CHICHKKLYTGPGLAIHCMQVHTE [K23T]: 2.61. Same read-out and setting: the value for CHICHKKLYTGPGLAIHCMQVHHE [K23H] was 3.48; that for CHICHKKLYTGPGLAIHCMQVHLE [K23L] was 2.38; that for CHICHKKLYTGPGLAIHCMQVHYE [K23Y] was 2.19.
